The results in this text go back to patent publication US20170299608A1 (NGM BIOPHARMACEUTICALS, published 2017).

Usually IC50 stands for the concentration that gives 50% inhibition. As a reminder, the Kd is the concentration at which binding is half-saturated.

Experiment [1] addresses T1, human GFRAL, full length, expressed on HEK293 / HEK293T cells (human, UniProt Q6UXV0 20-394).
T1 sequence: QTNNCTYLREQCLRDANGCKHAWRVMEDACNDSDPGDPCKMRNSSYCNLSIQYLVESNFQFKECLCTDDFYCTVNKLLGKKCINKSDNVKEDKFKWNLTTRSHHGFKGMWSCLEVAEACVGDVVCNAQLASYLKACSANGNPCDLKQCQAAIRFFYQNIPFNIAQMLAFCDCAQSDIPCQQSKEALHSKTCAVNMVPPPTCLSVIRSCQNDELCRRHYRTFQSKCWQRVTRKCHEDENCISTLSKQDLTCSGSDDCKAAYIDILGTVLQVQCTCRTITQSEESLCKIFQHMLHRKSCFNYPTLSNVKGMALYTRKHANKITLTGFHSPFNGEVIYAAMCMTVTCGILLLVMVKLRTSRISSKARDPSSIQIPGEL
Put plainly: cell-based or functional assay.

Experiment [2] concerns the target T2, mouse GFRAL, expressed on HEK293T cells (mouse, UniProt Q6SJE0 20-393).
T2 sequence: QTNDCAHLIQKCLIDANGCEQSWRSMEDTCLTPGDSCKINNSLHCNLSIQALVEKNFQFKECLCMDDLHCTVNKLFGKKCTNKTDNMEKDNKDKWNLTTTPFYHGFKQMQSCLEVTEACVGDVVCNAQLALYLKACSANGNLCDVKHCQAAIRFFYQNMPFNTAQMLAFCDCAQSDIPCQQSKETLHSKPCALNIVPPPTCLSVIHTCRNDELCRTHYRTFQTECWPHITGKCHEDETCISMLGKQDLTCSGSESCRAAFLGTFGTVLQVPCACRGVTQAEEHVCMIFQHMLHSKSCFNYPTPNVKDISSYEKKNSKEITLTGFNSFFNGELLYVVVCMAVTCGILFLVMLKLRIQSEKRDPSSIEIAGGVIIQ
In words: cell-based or functional assay.

Experiment [3] deals with T3, rat GFRAL, expressed on HEK293T cells (rat, UniProt D3ZB94 20-394).
T3 sequence: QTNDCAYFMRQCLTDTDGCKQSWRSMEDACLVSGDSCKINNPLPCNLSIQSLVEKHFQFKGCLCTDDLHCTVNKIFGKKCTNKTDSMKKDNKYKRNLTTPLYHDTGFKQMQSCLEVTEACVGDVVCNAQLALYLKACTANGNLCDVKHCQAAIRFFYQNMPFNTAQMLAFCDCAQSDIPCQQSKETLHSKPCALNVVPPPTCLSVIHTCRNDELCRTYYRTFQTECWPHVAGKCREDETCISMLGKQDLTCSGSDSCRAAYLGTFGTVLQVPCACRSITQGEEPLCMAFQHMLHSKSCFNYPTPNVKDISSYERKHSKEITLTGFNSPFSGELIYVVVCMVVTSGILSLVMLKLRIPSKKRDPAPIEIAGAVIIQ
Put plainly: cell-based or functional assay.

In experiment [4] the target is T4, cynomolgus monkey GFRAL, expressed on HEK293T cells (cynomolgus monkey, UniProt Q6UXV0 19-394 (human entry)).
T4 chain: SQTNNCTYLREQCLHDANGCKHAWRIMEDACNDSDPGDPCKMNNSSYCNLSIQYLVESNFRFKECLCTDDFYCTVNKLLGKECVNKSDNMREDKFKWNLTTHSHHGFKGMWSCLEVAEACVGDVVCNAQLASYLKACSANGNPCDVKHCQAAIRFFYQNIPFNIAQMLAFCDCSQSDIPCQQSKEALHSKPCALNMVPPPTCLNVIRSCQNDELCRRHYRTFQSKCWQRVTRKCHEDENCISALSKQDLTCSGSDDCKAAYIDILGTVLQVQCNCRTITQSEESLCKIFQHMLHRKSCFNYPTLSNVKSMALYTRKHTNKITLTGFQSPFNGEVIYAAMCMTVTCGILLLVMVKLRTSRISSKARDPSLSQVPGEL
Put plainly: cell-based or functional assay.

For experiment [5], the target named is T1, human GFRAL, full length, expressed on …. In words: radio-ligand competition: unlabeled GDF15 displacing 0.15 nM ^125I-GDF15 from HEK293-GFRAL cells. The protocol:
HEK293-GFRAL cells were suspended in ice-cold binding buffer (Dulbecco's modified Eagle's medium containing 2 mg/ml BSA, and 25 mM HEPES, pH 7.4) and transferred to pre-wetted Multiscreen filter plates (96-well Dura PVDF 0.65 um Opaque; Millipore), which were kept on ice. Typically, 1×10⁵ of cells in 25 μl were used per well. […] Plates were then transferred to a vacuum filtration manifold (Pall Corporation) and supernatants were filtered. Each well was washed four times with 100 μl of ice cold binding buffer. Bound ¹²⁵I-GDF15 (CPM) were measured by scintillation counting (150 μl/well of EcoLite, MP Biomedicals, Santa Anna, Calif.) using MicroBeta2 Plate Counter (Perkin Elmer). The concentrations (in nM) of unlabeled inhibitors used in this experiment are as follows. GDF15 and GFRAL-Fc: 100, 25, 6.25, 1.56, 0.39, 0.098, 0.024, 0.006; 1M03: 1000, 250, 62.5, 15.63, 3.91, 0.98, 0.24, 0.06.

Experiment [6] has the same target. In words: radioligand saturation binding to HEK293 cells expressing human GFRAL, equilibrium, 2 hr at 4 °C. On the procedure:
HEK293 or HEK293-human GFRAL cells were suspended in ice-cold binding buffer (Dulbecco's modified Eagle's medium containing 2 mg/ml BSA, and 25 mM HEPES, pH 7.4) and transferred to pre-wetted Multiscreen filter plates (96-well Dura PVDF 0.65 um Opaque; Millipore), which were kept on ice. Typically, 1×10⁵ of cells in 25 μl were used per well. Cells were incubated with 25 μl of binding buffer containing serial dilution of ¹²⁵I-GDF15 (2 fold serial dilution from 1000 pM to 0.1 pM final reaction concentration) with or without unlabeled GDF15 (500 nM final reaction concentration) for 2 hr at 4° C. Plates were then transferred to a vacuum filtration manifold (Pall Corporation) and supernatants were filtered. Each well was washed four times with 100 μl of ice cold binding buffer. Bound ¹²⁵I-GDF15 were measured by scintillation counting (150 μl/well of EcoLite, MP Biomedicals, Santa Anna, Calif.) using MicroBeta2 Plate Counter (Perkin Elmer). Bound (molecule/cell) was calculated according to a standard curve correlating CPM and molarity of ¹²⁵I-GDF15.
To determine the binding affinity of GDF15 to GFRAL, radio-labeled ¹²⁵I-GDF15 was used to bind HEK293 cells expressing human GFRAL (FIG. 2A) under equilibrium conditions. […] Excess amount of unlabeled GDF15 (500 nM) reduced the ¹²⁵I-GDF15-GFRAL binding to ‘non-specific’ background level. […]

B1: mature human GDF15 (112 amino acids) (ligand)
chain: ARNGDHCPLGPGRCCRLHTVRASLEDLGWADWVLSPREVQVTMCIGACPSQFRAANMHAQIKTSLHRLKPDTVPAPCCVPASYNPMVLIQKTDTGVSLQTYDDLLAKDCHCI
notes: also called hGDF15; unlabeled GDF15
For the molecule B1, the “EC50 of Elk/GAL4-luciferase reporter in HEK293T cells co-transfected with human GFRAL and human RET9” value in experiment [1] came to 2.1 pM. In experiment [2], the “EC50 of Elk/GAL4-luciferase reporter in HEK293T cells co-transfected with mouse GFRAL and RET9” value is 1.5 pM. The “EC50 of Elk/GAL4-luciferase reporter in HEK293T cells co-transfected with rat GFRAL and RET9” value in experiment [3] came to 6.2 pM. Further, the “EC50 of Elk/GAL4-luciferase reporter in HEK293T cells co-transfected with cynomolgus monkey GFRAL and RET9” value in experiment [4] was 5.2 pM. In experiment [5], this molecule showed a concentration for half-maximal inhibition (IC50) of 400 pM.

B2: ^125I-GDF15 (radio-iodinated mature human GDF15) (ligand)
chain: ARNGDHCPLGPGRCCRLHTVRASLEDLGWADWVLSPREVQVTMCIGACPSQFRAANMHAQIKTSLHRLKPDTVPAPCCVPASYNPMVLIQKTDTGVSLQTYDDLLAKDCHCI
modifications: 125I label, site not stated
notes: Labelled form of m1; also called radio-labeled GDF15
B2 returned a Kd in experiment [6] of around 200 pM.
